# According to publication doi:10.1101/2022.05.04.490172:
# B1: MORE DNA (dsDNA)
# DNA 1: GTATGCAAATAAG
# DNA 2: CTTATTTGCATAC
# Target: T1, BRN2 DNA-binding domain (BRN2-DBD) (Homo sapiens, UniProt P20265 264-415)
# T1 sequence: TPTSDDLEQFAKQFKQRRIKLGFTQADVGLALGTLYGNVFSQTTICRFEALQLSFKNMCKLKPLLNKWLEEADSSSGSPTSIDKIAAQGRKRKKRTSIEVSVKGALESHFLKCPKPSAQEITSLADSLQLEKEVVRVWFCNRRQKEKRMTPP
# Test: X-ray crystallography
binder,measurement,value
B1,binding result,binds
